Assay [1] deals with FG domain comprising 52 GLFG 12mer repeat units. The experiment in a line: FG phase partitioning (confocal microscopy); FG domain phase-separated by dilution from guanidinium hydrochloride, then fluorescent probe added; 50 mM Tris/HCl pH 7.5, 250 mM NaCl, 1 mM IP6; scanned after 1 h; partition coefficient = signal in the FG particle : outside.
Assay [2] has as its target disulfide-stabilized HIV-1 CA hexamer (CA-P1A, A14C, E45C, W184A, M185A) (HIV-1). The experiment in a line: SEC; Superdex 200 increase, 20 mM Tris/HCl pH 8.0, 150 mM NaCl, 100 µM IP6; peak fraction seen by negative-stain EM; disulfide-stabilised hexamer. (In general: In gel filtration, larger molecules generally elute earlier.)

Turning to “40 nm capsid spheres (CA-P1A/N21C/A22C) labelled with CA–EGFP (complex)”, in assay [1], the partition coefficient (in:out) is over 300.
Turning to “capsid-like particles (CLPs) assembled from wild-type CA, with encapsulated mCherry (complex)”, in assay [1], the partition coefficient (in:out) was over 750.
The stoichiometry N is a count of units in the complex or per binding partner. On to “disulfide-stabilized HIV-1 CA hexamer (CA-P1A, A14C, E45C, W184A, M185A) (complex)”, for which, in assay [2], the stoichiometry N came out at 6.
With mCherry, the partition coefficient (in:out) in assay [1] was under 0.05.

These data come from publication PMC10881386.
